Measurements published in paper PMC8580825, “Scaffolding protein CcmM directs multiprotein phase separation in β-carboxysome biogenesis” (Nature Structural & Molecular Biology, 2021).
Positions count from the first letter of the chain named. Values belong to the binder of their own block, whether it stands above or below them.

Legend:
[1] = target: T1, CcmM full-length protein M58 of Synechococcus elongatus PCC 7942 (Synechococcus elongatus PCC 7942, UniProt Q03513 1-539); experiment: turbidity assay; 0.25 μM Rubisco (RbcL8S8) with increasing M58red, M58ox, CCTRIM35red or CCTRIM35ox at 50 mM KCl; or with 0.25 μM M58, 0.25 μM CCTRIM35 or 0.75 μM M35 at 50 and 100 mM KCl; reducing or oxidizing; apparent; conditions: both partners purified
T1 construct: CcmM (M58, ~58 kDa), Synechococcus elongatus PCC 7942; full-length ccmM gene amplified from genomic DNA; SeCcmM (1-539); Used reduced (M58red, 5 mM DTT) or oxidized (M58ox, 2 mM H2O2; disulfides in SSUL modules); For microscopy labelled at the N terminus with Alexa532 and mixed 1:10 with unlabelled protein; also called SeM58; M58red; source: E. coli BL21 (DE3), purified (Ni-NTA, H6Ub cleaved with …)
T1 sequence (looked up): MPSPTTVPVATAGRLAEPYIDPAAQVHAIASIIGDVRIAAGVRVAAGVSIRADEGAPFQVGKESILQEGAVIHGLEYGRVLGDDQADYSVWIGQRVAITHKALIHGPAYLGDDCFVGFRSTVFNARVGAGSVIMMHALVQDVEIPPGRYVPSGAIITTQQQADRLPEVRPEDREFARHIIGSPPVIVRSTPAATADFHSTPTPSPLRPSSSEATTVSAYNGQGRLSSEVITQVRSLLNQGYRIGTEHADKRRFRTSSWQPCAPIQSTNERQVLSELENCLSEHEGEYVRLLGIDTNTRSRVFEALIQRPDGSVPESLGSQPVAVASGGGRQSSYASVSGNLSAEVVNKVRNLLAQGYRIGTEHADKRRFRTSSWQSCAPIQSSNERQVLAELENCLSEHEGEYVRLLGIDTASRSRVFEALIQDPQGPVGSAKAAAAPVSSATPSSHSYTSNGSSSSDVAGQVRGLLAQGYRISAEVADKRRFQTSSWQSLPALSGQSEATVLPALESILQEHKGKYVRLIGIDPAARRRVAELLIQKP

[2] = target: T2, M58(D172K) (Synechococcus elongatus PCC 7942, UniProt Q03513 1-539, D172K); experiment: turbidity assay; absorbance at 340 nm, 25 °C, 50 mM Tris-HCl pH 8.0, 10 mM Mg(OAc)2; 0.5 μM CcaA or its mutants (0–1.25 μM for the apparent KD) with 0.5 μM M58 or its truncations and mutants, 0.75 μM γCAL198 or 2.25 μM M35; 100 mM KCl (50–400 mM in the salt series); reducing (5 mM DTT) or oxidizing; apparent; a protein alone: association of its oligomers into condensates; conditions: both partners purified
T2 construct: CcmM (M58), Synechococcus elongatus PCC 7942, point mutant in the γCAL domain (head-to-head salt bridge); also called SeM58-D172K; M58oxD172K; source: E. coli BL21 (DE3), purified as wild-type M58; not shown: His6-ubiquitin, N-terminal, cleaved
T2 sequence (looked up): T1 sequence (looked up) with D172K

[3] = target: T1, CcmM full-length protein M58 of …; experiment: as above; conditions: both partners purified
[4] = target: T3, M58(R164D) (Synechococcus elongatus PCC 7942, UniProt Q03513 1-539, R164D); experiment: as above; conditions: both partners purified
T3 construct: CcmM (M58), Synechococcus elongatus PCC 7942, point mutant in the γCAL domain (head-to-head salt bridge); also called SeM58-R164D; M58oxR164D; source: E. coli BL21 (DE3), purified as wild-type M58; not shown: His6-ubiquitin, N-terminal, cleaved
T3 sequence (looked up): T1 sequence (looked up) with R164D

[5] = target: β-class carbonic anhydrase CcaA of Synechococcus elongatus PCC 7942 (Synechococcus elongatus PCC 7942) (UniProt P27134); experiment: SEC-MALS; 2 mg/ml protein; 50 mM Tris-HCl pH 8.0/150 mM KCl or 50 mM Tris-HCl pH 8.0/500 mM KCl/5 mM DTT; 25 °C; oligomeric state in solution
[6] = target: the molecule itself; experiment: turbidity assay; one protein alone (homodemixing: association of trimers into a homocondensate); 50 mM KCl; M58ox 0.5–3.0 μM, M58red 5 and 6 μM; truncations and point mutants oxidized at 3 μM; M58-C4S and CCTRIM35 at 5 μM; 25 °C

Kd [1]: ~70 nM
B1: Rubisco holoenzyme (RbcL8S8) of Synechococcus elongatus PCC 7942 (complex)
chain 1: MPKTQSAAGYKAGVKDYKLTYYTPDYTPKDTDLLAAFRFSPQPGVPADEAGAAIAAESSTGTWTTVWTDLLTDMDRYKGKCYHIEPVQGEENSYFAFIAYPLDLFEEGSVTNILTSIVGNVFGFKAIRSLRLEDIRFPVALVKTFQGPPHGIQVERDLLNKYGRPMLGCTIKPKLGLSAKNYGRAVYECLRGGLDFTKDDENINSQPFQRWRDRFLFVADAIHKSQAETGEIKGHYLNVTAPTCEEMMKRAEFAKELGMPIIMHDFLTAGFTANTTLAKWCRDNGVLLHIHRAMHAVIDRQRNHGIHFRVLAKCLRLSGGDHLHSGTVVGKLEGDKASTLGFVDLMREDHIEADRSRGVFFTQDWASMPGVLPVASGGIHVWHMPALVEIFGDDSVLQFGGGTLGHPWGNAPGATANRVALEACVQARNEGRDLYREGGDILREAGKWSPELAAALDLWKEIKFEFETMDKL
chain 2: MSMKTLPKERRFETFSYLPPLSDRQIAAQIEYMIEQGFHPLIEFNEHSNPEEFYWTMWKLPLFDCKSPQQVLDEVRECRSEYGDCYIRVAGFDNIKQCQTVSFIVHRPGRY

binding result [2]: binds | Kd [3]: ~200 nM | binding result [4]: binds | stoichiometry N [5]: 4
B2: β-class carbonic anhydrase CcaA of Synechococcus elongatus PCC 7942 (enzyme, UniProt P27134 1-272, looked up)
chain: MRKLIEGLRHFRTSYYPSHRDLFEQFAKGQHPRVLFITCSDSRIDPNLITQSGMGELFVIRNAGNLIPPFGAANGGEGASIEYAIAALNIEHVVVCGHSHCGAMKGLLKLNQLQEDMPLVYDWLQHAQATRRLVLDNYSGYETDDLVEILVAENVLTQIENLKTYPIVRSRLFQGKLQIFGWIYEVESGEVLQISRTSSDDTGIDECPVRLPGSQEKAILGRCVVPLTEEVAVAPPEPEPVIAAVAAPPANYSSRGWLAPEQQQRIYRGNAS
notes: CcaA (~30 kDa), Synechococcus elongatus PCC 7942; ccaA gene amplified from genomic DNA; 272 residues (last 17 are 256-272); For microscopy labelled at the N terminus with Alexa405 and mixed 1:10 with unlabelled protein; also called CcaAAF4; source: E. coli BL21 (DE3), purified (Ni-NTA, H6Ub cleaved, SEC); not shown: His6-ubiquitin, N-terminal, cleaved

B3: γCAL-2S (domain or fragment, Synechococcus elongatus PCC 7942, UniProt Q03513 1-429, looked up)
chain: MPSPTTVPVATAGRLAEPYIDPAAQVHAIASIIGDVRIAAGVRVAAGVSIRADEGAPFQVGKESILQEGAVIHGLEYGRVLGDDQADYSVWIGQRVAITHKALIHGPAYLGDDCFVGFRSTVFNARVGAGSVIMMHALVQDVEIPPGRYVPSGAIITTQQQADRLPEVRPEDREFARHIIGSPPVIVRSTPAATADFHSTPTPSPLRPSSSEATTVSAYNGQGRLSSEVITQVRSLLNQGYRIGTEHADKRRFRTSSWQPCAPIQSTNERQVLSELENCLSEHEGEYVRLLGIDTNTRSRVFEALIQRPDGSVPESLGSQPVAVASGGGRQSSYASVSGNLSAEVVNKVRNLLAQGYRIGTEHADKRRFRTSSWQSCAPIQSSNERQVLAELENCLSEHEGEYVRLLGIDTASRSRVFEALIQDPQGPV
notes: C-terminal truncation of CcmM (M58), Synechococcus elongatus PCC 7942, with the γCAL domain and two SSUL modules, residues 1-429; also called SeγCAL-2S(1–429); γCAL-2Sox; source: E. coli BL21 (DE3), purified as M58; not shown: His6-ubiquitin, N-terminal, cleaved
binding result [6]: binds
